Source: patent publication US20100167270

Key:
[1] = system: hMPV F protein of rhMPV/NL/1/00/101P (RQPR cleavage motif)
[2] = system: hMPV F protein of rhMPV/NL/1/00/101S (RQSR cleavage motif)
[3] = system: hMPV F protein of rhMPV/NL/1/99/101S (subtype B1)

With TPCK trypsin (Sigma) the “cleavage of vectored hMPV F (b/h PIV3), Western blot” value [1] was “In the presence of trypsin, the vectored F proteins of both hMPV/NL/1/00/101P and hMPV/NL/1/00/101S were partially cleaved to the same extent as the F protein expressed from the wt hMPV/NL/1/00”, the “cleavage of hMPV F (F0 to F1), Western blot” value [2] was “hMPV F containing 101S was cleaved only when the protein was exposed to trypsin” and the “cleavage of vectored hMPV F (b/h PIV3), Western blot” value [2] was “In the presence of trypsin, the vectored F proteins of both hMPV/NL/1/00/101P and hMPV/NL/1/00/101S were partially cleaved to the same extent as the F protein expressed from the wt hMPV/NL/1/00”. For the same substance, the “cleavage of hMPV F (F0 to F1), Western blot” value [3] was “hMPV F/101S showed no cleavage in the absence of trypsin, but in the presence of trypsin, the F1 fragment was readily detected”.
